Assay [1] addresses T1, THP-1细胞表面的LILRB4 (human, UniProt Q8NHJ6 22-448).
T1 construct: whole, on cells; Endogenous LILRB4 on THP-1 cells; also called 人单核细胞白血病细胞(THP-1)表面LILRB4
In words: flow cytometry on THP-1 cells. In general terms: In flow cytometry, cells or beads pass a laser one at a time.

Another assay deals with T2, LILRB4抗原 (人LILRB4蛋白胞外段) (human, UniProt Q8NHJ6 22-259).
T2 construct: extracellular domain; also called 白细胞免疫球蛋白样受体亚家族B成员4
In words: ELISA, coated LILRB4, anti-human IgG-HRP. Background: ELISA stands for enzyme-linked immunosorbent assay.

Assay [2] concerns the target T1, THP-1细胞表面的LILRB4. In words: cell-based or functional assay.
Assay [3] deals with T1, THP-1细胞表面的LILRB4. In words: cell-based or functional assay. The source holds these as a separate data set.
Assay [4] has as its target T1, THP-1细胞表面的LILRB4. In words: flow cytometry competition on THP-1 cells; competitor FITC-labelled ApoE.

This is an account of results in patent CN116199779A (BEIJING DONGFANG BIOTECH CO LTD; BEIJING JINGYI TAIXIANG …, dated 2023).

B1: 嵌合抗体CB-Ⅰ (MB-Ⅰ variable regions, human IgG1, Ck) (antibody)
heavy: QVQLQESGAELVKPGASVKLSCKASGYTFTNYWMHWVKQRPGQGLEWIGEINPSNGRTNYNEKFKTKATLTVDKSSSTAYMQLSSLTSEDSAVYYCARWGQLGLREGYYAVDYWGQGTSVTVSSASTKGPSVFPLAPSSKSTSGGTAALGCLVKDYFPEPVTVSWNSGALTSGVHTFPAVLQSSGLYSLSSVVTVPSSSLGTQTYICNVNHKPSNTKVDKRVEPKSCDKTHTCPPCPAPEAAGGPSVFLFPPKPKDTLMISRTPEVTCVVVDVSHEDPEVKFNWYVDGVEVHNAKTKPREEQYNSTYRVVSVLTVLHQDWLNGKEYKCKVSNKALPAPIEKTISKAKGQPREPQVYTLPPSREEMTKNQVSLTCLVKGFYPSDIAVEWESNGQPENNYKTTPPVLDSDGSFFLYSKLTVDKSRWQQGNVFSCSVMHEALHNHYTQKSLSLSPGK
light: DIVMTQSPSSLSASLGDRVTISCRASQDISNYLNWYQQKPDGTVKLLIYYTSRLHSGVPSRFSGSGSGTDYSLTISNLEQEDIATYFCQQGNTLPPTFGGGTKLEIKRTVAAPSVFIFPPSDEQLKSGTASVVCLLNNFYPREAKVQWKVDNALQSGNSQESVTEQDSKDSTYSLSSTLTLSKADYEKHKVYACEVTHQGLSSPVTKSFNRGEC
notes: also called CB-I
Turning to B1, the EC50 (usually the concentration needed to bring the measured effect to its halfway point) turned out to be 0.445 µg/mL with THP-1细胞表面的LILRB4 [1] and 0.0655 µg/mL with LILRB4抗原 (人LILRB4蛋白胞外段).

B2: 人源化抗体HB-Ⅰ (human IgG1, Ck) (antibody, V domains shown)
VH: QVQLVQSGAEVKKPGASVKVSCKASGYTFTNYWMHWVRQAPGQGLEWIGEINPSNGRTNYNEKFKTRATLTVDTSTSTAYMELSSLRSEDTAVYYCARWGQLGLREGYYAVDYWGQGTLVTVSS
VL: DIQMTQSPSSLSASVGDRVTITCRASQDISNYLNWYQQKPGKAPKLLIYYTSRLHSGVPSRFSGSGSGTDYTFTISSLQPEDIATYYCQQGNTLPPTFGGGTKVEIKR
notes: also called HB-I
On to B2, for which the EC50 with LILRB4抗原 (人LILRB4蛋白胞外段) is 0.343 µg/mL.

B3: 嵌合抗体CA-Ⅰ (MA-Ⅰ variable regions, human IgG1, Ck) (antibody)
heavy: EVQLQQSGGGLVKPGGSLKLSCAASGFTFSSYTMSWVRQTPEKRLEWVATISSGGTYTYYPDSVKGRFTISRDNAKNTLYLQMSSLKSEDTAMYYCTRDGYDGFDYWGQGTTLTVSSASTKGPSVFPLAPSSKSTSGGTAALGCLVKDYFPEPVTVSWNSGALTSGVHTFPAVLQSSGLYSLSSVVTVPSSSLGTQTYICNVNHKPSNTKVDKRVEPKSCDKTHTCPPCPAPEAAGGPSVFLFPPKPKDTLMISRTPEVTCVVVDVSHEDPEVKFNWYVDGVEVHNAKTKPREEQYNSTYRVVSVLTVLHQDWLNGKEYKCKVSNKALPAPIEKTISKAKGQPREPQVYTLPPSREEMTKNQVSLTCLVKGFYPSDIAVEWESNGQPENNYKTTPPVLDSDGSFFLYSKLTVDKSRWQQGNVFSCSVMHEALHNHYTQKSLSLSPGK
light: DIVMTQTTLSLPVSPGDQASISCRSSQSLAHSNGNTYLHWYLQKPGQSPKLLIYKVSNRFSGVPDRFSGSGSGTDFTLKISRVEAEDLGVYFCSQSTLVPTFGGGTKLEIKRTVAAPSVFIFPPSDEQLKSGTASVVCLLNNFYPREAKVQWKVDNALQSGNSQESVTEQDSKDSTYSLSSTLTLSKADYEKHKVYACEVTHQGLSSPVTKSFNRGEC
notes: also called CA-I
For B3, the concentration giving a half-maximal response (EC50) was 0.2 µg/mL with THP-1细胞表面的LILRB4 [1] and 0.0178 µg/mL in the assay with LILRB4抗原 (人LILRB4蛋白胞外段).

B4: 人源化抗体HA-Ⅱ (human IgG1, Ck) (antibody, V domains shown)
VH: EVQLVESGGGLVKPGGSLRLSCAASGFTFSSYTMSWVRQAPGKGLEWVATISSGGTYTYYPDSVKGRFTISRDNAKNSLYLQMNSLRAEDTAVYYCARDGYDGFDYWGQGTTVTVSS
VL: DIVMTQTPLSLSVTPGQPASISCRSSQSLAHSNGNTYLHWYLQKPGQSPQLLIYKVSNRFSGVPDRFSGSGSGTDFTLKISRVEAEDVGVYFCSQSTHVPTFGGGTKVEIKR
notes: also called HA-II
B4: the “IC50 of inhibition of ARG1 secretion by THP-1 cells with ApoE (arginase activity)” value (“IC50 of inhibition of ARG1 secretion” for short) with THP-1细胞表面的LILRB4 [2] was 250 µg/mL. Further, the “IC50, NF-κB luciferase reporter in THP-1-NF-κB-Luc cells stimulated with ApoE” value (shortened to “IC50, NF-κB luciferase reporter”) with THP-1细胞表面的LILRB4 [3] was 2.68 µg/mL. For the same molecule, the values for the EC50 with THP-1细胞表面的LILRB4 [1] and with LILRB4抗原 (人LILRB4蛋白胞外段) were 0.179 µg/mL and 0.0154 µg/mL, respectively. The IC50 (usually the concentration at which inhibition is half-maximal) in the assay with THP-1细胞表面的LILRB4 [4] stood at 2.75 µg/mL.

B5: 人源化抗体HA-Ⅰ (human IgG1, Ck) (antibody, V domains shown)
VH: EVQLVESGGGLVKPGGSLRLSCAASGFTFSSYTMSWVRQAPGKGLEWVSTISSGGTYTYYPDSVKGRFTISRDNAKNSLYLQMNSLRAEDTAVYYCARDGYDGFDYWGQGTTVTVSS
VL: DIVMTQTPLSLSVTPGQPASISCRSSQSLAHSNGNTYLHWYLQKPGQSPQLLIYKVSNRFSGVPDRFSGSGSGTDFTLKISRVEAEDVGVYYCSQSTHVPTFGGGTKVEIKR
notes: also called HA-I
With B5, the “IC50 of inhibition of ARG1 secretion” value with THP-1细胞表面的LILRB4 [2] came out at 31.2 µg/mL. In the assay with THP-1细胞表面的LILRB4 [3], the “IC50, NF-κB luciferase reporter” value was 0.756 µg/mL. The EC50 with THP-1细胞表面的LILRB4 [1] amounted to 0.181 µg/mL; in the assay with LILRB4抗原 (人LILRB4蛋白胞外段), 0.0174 µg/mL. This molecule also had an IC50 with THP-1细胞表面的LILRB4 [4] of 0.48 µg/mL.

B6: 人源化抗体HA-Ⅲ (human IgG1, Ck) (antibody, V domains shown)
VH: EVQLVESGGGLVKPGGSLRLSCAASGFTFSSYTMSWVRQAPGKGLEWVATISSGGTYTYYPDSVKGRFTISRDNAKNSLYLQMNSLRAEDTAVYYCTRDGYDGFDYWGQGTTVTVSS
VL: DIVMTQTPLSLSVTPGQPASISCRSSQSLAHSNGNTYLHWYLQKPGQSPKLLIYKVSNRFSGVPDRFSGSGSGTDFTLKISRVEAEDVGVYFCSQSTHVPTFGGGTKVEIKR
notes: also called HA-III
Turning to B6, the “IC50 of inhibition of ARG1 secretion” value with THP-1细胞表面的LILRB4 [2] was 98.5 µg/mL. Moreover, in the assay with THP-1细胞表面的LILRB4 [3], the “IC50, NF-κB luciferase reporter” value turned out to be 3.44 µg/mL. Also, the EC50 came to 0.186 µg/mL in the assay with THP-1细胞表面的LILRB4 [1] and 0.014 µg/mL with LILRB4抗原 (人LILRB4蛋白胞外段). The same molecule came in with an IC50 with THP-1细胞表面的LILRB4 [4] of 2.56 µg/mL.
